{"source": "patent US20240076396A1", "about": "(Regeneron, published 2024)", "binders": {"B1": {"name": "mAb1 (antibody, human IgG1, kappa, V domains shown)", "VH": "QVQLQESGPGLVKPSETLSLTCIVSGGSISGYFWNWIRQPPGKGLEWIGYIYYSGTTIYNPSLKSRFTISLDTSKNQFSLKLTSVTAADTAVYYCARESYDPSPRYFDHWGQGTLVTVSS", "VL": "not shown", "notes": "Human IgG1; N101D variant of CompAb1; also called N101D Variant; N101D"}}, "key": {"[1]": {"target": "T1, Jurkat/hCD20 cells (human CD20, no GITR; negative control cell line) (human, UniProt P11836 1-297)", "T1 construct": "whole, on cells; Control cell line without engineered GITR; the only named engineered protein on it is hCD20", "T1 sequence (looked up)": "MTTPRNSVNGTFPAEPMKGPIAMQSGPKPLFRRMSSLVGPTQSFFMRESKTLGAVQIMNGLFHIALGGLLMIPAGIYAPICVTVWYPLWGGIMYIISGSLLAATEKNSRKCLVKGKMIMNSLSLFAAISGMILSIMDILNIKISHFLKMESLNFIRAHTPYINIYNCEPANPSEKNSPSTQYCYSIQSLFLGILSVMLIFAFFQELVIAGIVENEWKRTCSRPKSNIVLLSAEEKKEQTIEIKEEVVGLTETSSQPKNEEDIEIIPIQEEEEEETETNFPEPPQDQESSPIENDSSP", "test": "flow cytometry on Jurkat/hCD20 control cells; max MFI over secondary antibody alone", "description": "Flow cytometry was used to evaluate mAb1 binding to Jurkat/hCD20/hGITR cells and Jurkat/hCD20/MfGITR cells. Jurkat/hCD20 cells were used as a negative control cell line for GITR binding. Cells were added to a 96-well V-bottom plate (2×10⁵ to 4×10⁵ cells/well) and incubated in Fc block solution, followed by successive incubation on ice with primary antibody (mAb1 or IgG1 isotype control) at final concentrations ranging from 18 pM to 300 nM and a secondary antibody (AF647-conjugated anti-human IgG) at 5 μg/mL. Cells were then stained with LIVE/DEAD Fixable Green Dead Cell Stain according to the manufacturer's instructions. […] Data were analyzed with Flow.lo software. For EC₅₀ (effective concentration at 50% activity) determinations, measured geometric MFI values were analyzed using a 4-parameter logistic equation over a 9-point response curve with GraphPad Prism. The fold binding was determined by taking the ratio of the highest MFI on the curve to the MFI of the wells containing secondary antibody only.\n^a The maximum MFI was the highest mean MFI value within the concentration range tested (18 pM to 300 nM). ^b Fold binding was calculated as the maximum MFI above background (secondary antibody alone). h, Human; Mf, Macaca fascicularis (cynomolgus monkey); ND, Not determined because concentration-dependent binding was not observed"}, "[2]": {"target": "T2, human GITR expressed on the cell surface (human, UniProt Q9Y5U5 26-241)", "T2 sequence": "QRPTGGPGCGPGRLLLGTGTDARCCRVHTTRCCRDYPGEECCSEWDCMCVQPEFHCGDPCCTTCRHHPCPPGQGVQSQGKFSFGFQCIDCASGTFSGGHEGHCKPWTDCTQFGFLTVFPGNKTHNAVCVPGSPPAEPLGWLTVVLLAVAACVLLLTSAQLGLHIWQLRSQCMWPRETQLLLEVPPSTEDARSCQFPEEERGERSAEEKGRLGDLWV", "test": "cell-based or functional assay"}, "[3]": {"target": "cynomolgus monkey GITR expressed on the cell surface (Macaca fascicularis (cynomolgus monkey))", "test": "cell-based or functional assay"}}, "data": [{"binder": "B1", "values": [{"measurement": "Fold Binding", "setting": "[1]", "result": 1.06, "unit": "fold"}, {"measurement": "EC50, ADCC against Jurkat/hCD20/hGITR, Donor 6500V NK cells", "setting": "[2]", "result": 0.0122, "unit": "nM"}, {"measurement": "EC50, ADCC against Jurkat/hCD20/hGITR, Donor 6700R NK cells", "setting": "[2]", "result": 0.013, "unit": "nM"}, {"measurement": "EC50, ADCC against Jurkat/hCD20/MfGITR, Donor 6500V NK cells", "setting": "[3]", "result": 0.0108, "unit": "nM"}, {"measurement": "EC50, ADCC against Jurkat/hCD20/MfGITR, Donor 6700R NK cells", "setting": "[3]", "result": 0.0121, "unit": "nM"}]}]}
